Experimental data from patent publication US20150306234.
Positions count from the first letter of the chain named.

Assays:
BDD FVIII mutein S2094C = test system: T1, BDD FVIII mutein S2094C
T1 sequence: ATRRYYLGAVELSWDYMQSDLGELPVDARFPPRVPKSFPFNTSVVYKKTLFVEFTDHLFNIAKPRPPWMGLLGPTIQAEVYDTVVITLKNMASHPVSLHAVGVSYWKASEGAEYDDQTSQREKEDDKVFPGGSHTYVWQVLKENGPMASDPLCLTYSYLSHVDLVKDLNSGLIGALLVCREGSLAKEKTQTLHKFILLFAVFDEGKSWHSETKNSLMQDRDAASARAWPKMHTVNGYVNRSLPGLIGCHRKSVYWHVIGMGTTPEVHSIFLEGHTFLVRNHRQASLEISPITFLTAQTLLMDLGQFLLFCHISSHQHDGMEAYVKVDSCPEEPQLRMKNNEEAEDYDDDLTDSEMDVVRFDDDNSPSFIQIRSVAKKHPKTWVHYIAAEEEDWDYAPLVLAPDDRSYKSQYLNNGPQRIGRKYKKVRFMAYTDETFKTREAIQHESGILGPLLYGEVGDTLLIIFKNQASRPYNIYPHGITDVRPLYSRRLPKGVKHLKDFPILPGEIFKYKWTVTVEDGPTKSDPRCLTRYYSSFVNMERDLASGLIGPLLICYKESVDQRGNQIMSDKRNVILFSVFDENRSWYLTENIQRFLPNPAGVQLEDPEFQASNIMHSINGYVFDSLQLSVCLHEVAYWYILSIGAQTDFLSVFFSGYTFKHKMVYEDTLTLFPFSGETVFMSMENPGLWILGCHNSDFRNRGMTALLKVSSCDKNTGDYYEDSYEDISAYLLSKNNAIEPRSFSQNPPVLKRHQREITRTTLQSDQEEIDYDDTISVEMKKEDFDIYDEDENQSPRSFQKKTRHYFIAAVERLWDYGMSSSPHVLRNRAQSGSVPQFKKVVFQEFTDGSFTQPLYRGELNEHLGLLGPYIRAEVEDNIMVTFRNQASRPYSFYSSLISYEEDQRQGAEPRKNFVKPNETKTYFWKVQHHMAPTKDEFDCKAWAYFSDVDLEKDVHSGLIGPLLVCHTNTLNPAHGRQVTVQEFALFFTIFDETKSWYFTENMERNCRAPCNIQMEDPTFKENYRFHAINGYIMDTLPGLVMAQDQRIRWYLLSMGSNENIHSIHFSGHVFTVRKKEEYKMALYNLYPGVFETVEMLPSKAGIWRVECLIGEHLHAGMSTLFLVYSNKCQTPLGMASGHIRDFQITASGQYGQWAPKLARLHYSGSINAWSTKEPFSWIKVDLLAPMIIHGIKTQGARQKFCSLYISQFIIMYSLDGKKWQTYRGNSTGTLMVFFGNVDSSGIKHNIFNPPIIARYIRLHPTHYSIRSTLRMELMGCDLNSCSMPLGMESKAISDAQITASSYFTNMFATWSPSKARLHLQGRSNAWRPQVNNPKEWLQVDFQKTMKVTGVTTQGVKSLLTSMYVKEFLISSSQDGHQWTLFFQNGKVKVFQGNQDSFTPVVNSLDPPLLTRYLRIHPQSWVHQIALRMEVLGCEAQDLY

BDD FVIII mutein F2093C = test system: T2, BDD FVIII mutein F2093C
T2 sequence: T1 sequence with F1199C, C1200S

Substance: thrombin (Haematologic Technologies, Essex Junction, Vt.)
- thrombin cleavage, SDS-PAGE with silver staining (BDD FVIII mutein S2094C): Thrombin digestion of the muteins and control produced the expected cleavage fragments.
- thrombin cleavage, SDS-PAGE with silver staining (BDD FVIII mutein F2093C): Thrombin digestion of the muteins and control produced the expected cleavage fragments.
